# In patent US20230235070A1 (Pfizer, published 2023):
# T1: TNF-like ligand 1A (TL1A) (human, UniProt O95150 72-251)
# T1 construct: Endogenous protein measured in patients' serum and biopsies by immunoprecipitation LC-MS/MS; also called TNFSF15; soluble TL1A
# T1 sequence (looked up): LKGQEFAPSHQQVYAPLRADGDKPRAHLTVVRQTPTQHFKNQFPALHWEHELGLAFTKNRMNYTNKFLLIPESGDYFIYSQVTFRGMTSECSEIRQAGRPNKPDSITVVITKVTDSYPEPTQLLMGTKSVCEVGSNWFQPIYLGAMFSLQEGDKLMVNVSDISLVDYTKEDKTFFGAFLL
# Molecular target: T1, TNF-like ligand 1A (TL1A)
# Experiment: total soluble TL1A in serum of treated participants, immunoprecipitation LC-MS/MS (in vivo target engagement)
# Protocol: An Immunoprecipitation LC-MS/MS assay has been developed and validated to measure total soluble TL1A in human serum. Total soluble TL1A is isolated from human serum using immuno-enrichment technology. The samples are incubated and shaken with a biotinylated anti-TL1A capture reagent at 4° C. overnight. Dynabeads MyOne C1 streptavidin-coupled magnetic beads are then added to each sample and incubated at room temperature for 1 h to extract TL1A bound to biotinylated capture antibody. The beads are then washed three times, followed by elution of total TL1A from the beads under acidic conditions. After addition of the extended sequence stable isotope labeled peptide (internal standard) to each sample, trypsin digestion is performed at 37° C. overnight. All sample processing is performed in a 96-well format on an automated liquid handling robot (Microlab STAR, Hamilton, Bonaduz, Switzerland). A 120 μL of the sample extract is injected onto a three-dimensional Dionex Ultimate 3000 nano-LC system, comprising a conventional flow immunoaffinity capture with custom 2.1 mm ID anti-peptide antibody column, and elution to 300 μm ID C18 trap column and 75 μm ID nano LC analytical column. […] One selected reaction monitoring transition for the signature peptide is used to quantify TL1A in the positive ion mode, and all data are normalized to the internal standard response. […]
binder,measurement,value
"PF-06480605 (antibody, human IgG1, kappa, V domains shown, The embodiments and claims number differently (1 = VH, 2 = VL, 9 = HC, 10 = LC); also called anti-TL1A) VH: QVQLVQSGAEVKKPGASVKVSCKASGYDFTYYGISWVRQAPGQGLEWMGWISTYNGNTHYARMLQGRVTMTTDTSTRTAYMELRSLRSDDTAVYYCARENYYGSGAYRGGMDVWGQGTTVTVSS VL: EIVLTQSPATLSLSPGERATLSCRASQSVSSYLAWYQQKPGQAPRLLIYDASNRATGIPARFSGSGSGTDFTLTISSLEPEDFAVYYCQQRSNWPWTFGQGTKVEIKR",binding result,binds
